Among the data in patent publication US5721126 are activity (units/g wet cells) values, retold here.

In the data set the target is T1, ScaI restriction endonuclease (Streptomyces caespitosus) (UniProt O52691).
T1 sequence: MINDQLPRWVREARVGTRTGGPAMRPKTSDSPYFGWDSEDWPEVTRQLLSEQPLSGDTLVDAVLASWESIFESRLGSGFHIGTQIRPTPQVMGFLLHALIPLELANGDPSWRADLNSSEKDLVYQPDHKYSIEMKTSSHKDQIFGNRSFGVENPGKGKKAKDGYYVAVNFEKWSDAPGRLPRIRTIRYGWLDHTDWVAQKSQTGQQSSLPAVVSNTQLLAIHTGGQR
Put plainly: cleavage_in_vitro. The note with it: diluted cell extract, 1 ug DNA, 37 C, 1 h.

Turning to lambda DNA (ScaI sites), the activity (units/g wet cells) was 1e+06.
